Test results published in patent US20180369355A1 (TEXAS A AND M UNIVERSITY SYSTEM, published 2018).
Where no end group is shown, it is not given here.

T1: Fg D-fragment (UniProt P02671 130-216; P02675 164-491; P02679 114-437)
T1 construct: domain: D-fragment; also called D-domain
T1 sequence 1: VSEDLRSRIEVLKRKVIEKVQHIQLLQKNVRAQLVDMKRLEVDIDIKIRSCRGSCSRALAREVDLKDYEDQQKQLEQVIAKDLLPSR
T1 sequence 2: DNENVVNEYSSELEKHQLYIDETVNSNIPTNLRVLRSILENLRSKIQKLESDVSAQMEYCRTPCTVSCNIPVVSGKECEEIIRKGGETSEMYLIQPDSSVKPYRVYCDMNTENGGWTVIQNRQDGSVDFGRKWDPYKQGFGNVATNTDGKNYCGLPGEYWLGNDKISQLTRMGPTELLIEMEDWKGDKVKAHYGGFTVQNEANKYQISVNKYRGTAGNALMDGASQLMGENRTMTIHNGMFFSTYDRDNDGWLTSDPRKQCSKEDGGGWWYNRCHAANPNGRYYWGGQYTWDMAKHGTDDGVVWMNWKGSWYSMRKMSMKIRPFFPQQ
T1 sequence 3: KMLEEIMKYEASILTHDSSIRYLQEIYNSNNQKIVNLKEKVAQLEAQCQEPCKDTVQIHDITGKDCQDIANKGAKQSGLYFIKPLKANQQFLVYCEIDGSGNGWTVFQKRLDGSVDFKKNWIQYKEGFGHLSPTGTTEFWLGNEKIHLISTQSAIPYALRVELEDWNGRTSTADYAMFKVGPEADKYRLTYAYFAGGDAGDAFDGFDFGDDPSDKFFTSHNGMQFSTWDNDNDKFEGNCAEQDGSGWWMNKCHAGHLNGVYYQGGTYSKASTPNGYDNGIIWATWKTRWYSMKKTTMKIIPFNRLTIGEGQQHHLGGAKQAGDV

T2: human fibrinogen (human, UniProt P02671 20-629; P02675 31-491; P02679 27-437)
T2 construct: also called Fg; intact Fg
T2 sequence 1: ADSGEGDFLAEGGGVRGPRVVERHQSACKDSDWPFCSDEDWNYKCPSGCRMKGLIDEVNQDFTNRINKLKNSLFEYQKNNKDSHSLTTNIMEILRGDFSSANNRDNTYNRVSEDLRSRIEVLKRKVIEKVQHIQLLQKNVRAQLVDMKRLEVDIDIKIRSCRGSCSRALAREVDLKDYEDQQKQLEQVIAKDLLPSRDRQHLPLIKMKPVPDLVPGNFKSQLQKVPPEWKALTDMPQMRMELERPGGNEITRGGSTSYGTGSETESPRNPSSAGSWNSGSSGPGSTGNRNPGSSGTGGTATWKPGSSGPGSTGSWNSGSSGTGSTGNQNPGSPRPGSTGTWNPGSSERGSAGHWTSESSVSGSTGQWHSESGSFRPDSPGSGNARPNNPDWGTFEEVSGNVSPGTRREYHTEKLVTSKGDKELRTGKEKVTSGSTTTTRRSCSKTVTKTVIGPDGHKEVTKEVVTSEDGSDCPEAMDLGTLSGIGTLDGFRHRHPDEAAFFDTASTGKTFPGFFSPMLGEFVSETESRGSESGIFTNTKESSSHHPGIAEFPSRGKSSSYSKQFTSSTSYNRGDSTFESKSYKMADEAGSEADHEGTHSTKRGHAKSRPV
T2 sequence 2: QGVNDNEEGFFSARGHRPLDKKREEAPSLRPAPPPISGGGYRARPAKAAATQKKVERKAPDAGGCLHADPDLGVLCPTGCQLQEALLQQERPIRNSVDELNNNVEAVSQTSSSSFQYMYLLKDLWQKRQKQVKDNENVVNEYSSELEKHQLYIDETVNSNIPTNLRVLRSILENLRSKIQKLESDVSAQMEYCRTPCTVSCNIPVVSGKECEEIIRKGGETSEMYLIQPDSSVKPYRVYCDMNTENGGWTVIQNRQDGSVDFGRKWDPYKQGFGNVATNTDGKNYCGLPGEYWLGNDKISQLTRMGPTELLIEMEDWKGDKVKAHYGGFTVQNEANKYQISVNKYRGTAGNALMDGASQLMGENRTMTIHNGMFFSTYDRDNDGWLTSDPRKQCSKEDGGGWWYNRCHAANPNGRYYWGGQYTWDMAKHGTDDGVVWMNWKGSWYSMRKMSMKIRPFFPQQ
T2 sequence 3: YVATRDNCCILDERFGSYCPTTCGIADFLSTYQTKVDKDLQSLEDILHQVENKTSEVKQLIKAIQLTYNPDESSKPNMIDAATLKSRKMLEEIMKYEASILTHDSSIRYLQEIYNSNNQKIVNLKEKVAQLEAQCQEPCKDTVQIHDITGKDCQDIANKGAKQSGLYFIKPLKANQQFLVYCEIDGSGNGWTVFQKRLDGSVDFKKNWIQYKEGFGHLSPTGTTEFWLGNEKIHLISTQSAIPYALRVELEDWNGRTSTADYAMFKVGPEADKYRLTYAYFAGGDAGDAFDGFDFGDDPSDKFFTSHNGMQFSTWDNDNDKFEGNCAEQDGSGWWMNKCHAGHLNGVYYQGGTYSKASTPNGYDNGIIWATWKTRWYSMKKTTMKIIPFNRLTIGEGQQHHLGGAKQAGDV

T3: ClfA370-559 (S. aureus, UniProt Q53653 370-559)
T3 construct: also called recombinant form of N3
T3 sequence: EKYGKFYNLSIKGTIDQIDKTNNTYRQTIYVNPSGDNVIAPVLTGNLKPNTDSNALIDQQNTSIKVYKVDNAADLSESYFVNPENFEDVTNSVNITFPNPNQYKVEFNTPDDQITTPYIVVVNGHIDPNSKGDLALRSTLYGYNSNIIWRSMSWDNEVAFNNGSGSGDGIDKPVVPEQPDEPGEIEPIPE

B1: ClfA221-559 (other)
chain: VAADAPAAGTDITNQLTNVTVGIDSGTTVYPHQAGYVKLNYGFSVPNSAVKGDTFKITVPKELNLNGVTSTAKVPPIMAGDQVLANGVIDSDGNVIYTFTDYVNTKDDVKATLTMPAYIDPENVKKTGNVTLATGIGSTTANKTVLVDYEKYGKFYNLSIKGTIDQIDKTNNTYRQTIYVNPSGDNVIAPVLTGNLKPNTDSNALIDQQNTSIKVYKVDNAADLSESYFVNPENFEDVTNSVNITFPNPNQYKVEFNTPDDQITTPYIVVVNGHIDPNSKGDLALRSTLYGYNSNIIWRSMSWDNEVAFNNGSGSGDGIDKPVVPEQPDEPGEIEPIPE
notes: Recombinant, expressed in E. coli and purified by nickel chelate chromatography; the tag is not described; also called ClfA N2N3; ClfAN2N3
B2: GST-tagged Fg γ-peptide (other)
chain: {GST}-GEGQQHHLGGAKQAGDV
notes: domain: γ-peptide (carboxy terminal of the γ-chain); 'expressed and purified as described earlier'; also called GST-γ-peptide; GST tagged γ-peptide; not shown: GST tag
B3: ClfACC (other)
chain: GTDITNQLTNVTVGIDSGTTVYPHQAGYVKLNYGFSVPNSAVKGDTFKITVPKELNLNGVTSTAKVPPIMAGDQVLANGVIDSDGNVIYTFTDYVNTKCDVKATLTMPAYIDPENVKKTGNVTLATGIGSTTANKTVLVDYEKYGKFYNLSIKGTIDQIDKTNNTYRQTIYVNPSGDNVIAPVLTGNLKPNTDSNALIDQQNTSIKVYKVDNAADLSESYFVNPENFEDVTNSVNITFPNPNQYKVEFNTPDDQITTPYIVVVNGHIDPNSKGDLALRSTLYGYNSNIIWRSMSWDNEVAFNNGSGSGDGIDCPVVP
modifications: engineered disulfide bond between C327 and C541
notes: also called disulfide bond-closed ClfACC; closed form of ClfA N2N3

How the values were obtained:
[1] = target: ClfA221-559 (S. aureus strain Newman) (UniProt Q53653); test: SPR competition: Tefibazumab mixed with 1 µM ClfA221-559, blocked ligand immobilized Fg D-fragment (Fg-D)
[2] = target: ClfA221-559 (S. aureus strain Newman) (UniProt Q53653); test: SPR competition; 2 µM Tefibazumab with 1 µM ClfA221-559 over immobilized D-fragment (competitor: D-fragment)
[3] = target: ClfA221-559 (S. aureus strain Newman) (UniProt Q53653); test: SPR competition; Tefibazumab 0.1-2 µM with 1 µM ClfA221-559 over immobilized Fg D-fragment (competitor: D-fragment)
[4] = target: ClfA221-559 (S. aureus strain Newman) (UniProt Q53653); test: SPR competition; Tefibazumab 0.1-2 µM with 1 µM ClfA221-559 over immobilized human Fg (competitor: Fg)
[5] = target: ClfA221-559 (S. aureus strain Newman) (UniProt Q53653); test: SPR competition: Tefibazumab mixed with 1 µM ClfA221-559, blocked ligand immobilized fibrinogen (Fg)
[6] = target: ClfA221-559 (S. aureus strain Newman) (UniProt Q53653); test: SPR competition; 2 µM Tefibazumab with 1 µM ClfA221-559 over captured GST-tagged Fg γ-peptide (competitor: GST-γ-peptide)
[7] = target: ClfA221-559 (S. aureus strain Newman) (UniProt Q53653); test: SPR competition: Tefibazumab (0.1 to 2 µM) mixed with 1 µM ClfA221-559, binding of ClfA221-559 to immobilized fibrinogen (Fg) is blocked
[8] = target: ClfA221-559 (S. aureus strain Newman) (UniProt Q53653); test: SPR competition: Tefibazumab (0.1 to 2 µM) mixed with 1 µM ClfA221-559, binding of ClfA221-559 to immobilized Fg D-fragment (Fg-D) is blocked
[9] = target: ClfA221-559 (S. aureus strain Newman) (UniProt Q53653); test: SPR competition; 2 µM Tefibazumab with 1 µM ClfA221-559 over immobilized Fg (competitor: Fg)
Fg D-fragment [10] = target: T1, Fg D-fragment; test: SPR; ClfA221-559 over immobilized Fg D-fragment; immobilized Fg D-fragment
human fibrinogen [11] = target: T2, human fibrinogen; test: SPR; immobilized Fg against GST-γ-peptide
Fg D-fragment [12] = target: T1, Fg D-fragment; test: SPR; immobilized Fg D-fragment against GST-γ-peptide
human fibrinogen [13] = target: T2, human fibrinogen; test: SPR; ClfA221-559 over immobilized intact Fg; immobilized intact Fg
ClfA221-559 = target: B1; test: SPR (Biacore), drawn table Ligand/analyte: GST-γ-peptide on the surface, ClfA221-559 as analyte
ClfA370-559 = target: T3, ClfA370-559; test: SPR (Biacore), drawn table Ligand/analyte: GST-γ-peptide on the surface, ClfA N3 domain (ClfA370-559) as analyte
human fibrinogen [14] = target: T2, human fibrinogen; test: ITC; full-length Fg in the cell, ClfACC titrated in, 30 °C; full-length Fg in the cell, ClfACC titrated in
human fibrinogen [15] = target: T2, human fibrinogen; test: ITC; full-length Fg against the synthetic C-terminal γ-chain peptide
human fibrinogen [16] = target: T2, human fibrinogen; test: ITC, ClfACC titrated into fibrinogen in the cell; OneSites fit box
human fibrinogen [17] = target: T2, human fibrinogen; test: ITC, ClfACC titrated into fibrinogen in the cell; OneSites fit box, unit not given

**Q.** What does the source list for Tefibazumab (antibody)?
**A.** IC50 (read off the curve) [1]: 300 nM; percent inhibition [2]: 70%; IC50 [3]: 30 nM; IC50 [4]: 30 nM; IC50 (read off the curve) [5]: 300 nM; percent inhibition [6]: 25%; IC50 [7]: 30.2 nM; IC50 [8]: 29.6 nM; percent inhibition [9]: 60%

**Q.** For B1, which Kd (Fg D-fragment [10]) is on record?
**A.** 680 nM

**Q.** What about the “fold difference in KD against the γ-peptide” value (human fibrinogen [11]) of the same molecule?
**A.** 4 to 7 fold

**Q.** What about the “fold difference in KD against the γ-peptide” value (Fg D-fragment [12]) of the same molecule?
**A.** 4 to 7 fold

**Q.** What about the Kd (human fibrinogen [13]) of the same molecule?
**A.** 980 nM

**Q.** Which results are given for B2?
**A.** Kd (ClfA221-559): 4300 nM; Kd (ClfA370-559): 54000 nM

**Q.** Which Kd (human fibrinogen [14]) does the source give for B3 here?
**A.** 300 nM

**Q.** What about the “fold higher affinity against the γ-chain peptide” value (human fibrinogen [15]) of the same molecule?
**A.** 30 fold

**Q.** And the N (human fibrinogen [16])?
**A.** 1.57

**Q.** What about the ΔH (human fibrinogen [17]) of the same molecule?
**A.** -13300
